Measurements from the supplement of paper PMC9170038.

Test system: MS2 coat protein
Assay: apparent KD of MS2 coat protein; designed switch direction (-1 OFF switch, 1 ON switch): 1; higher = weaker reporter binding
How it was run: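 For each design, the apparent KD is the median over clusters of curves fitted to normalised cluster fluorescence. Clusters held RNA switches with common flanks, transcribed on Illumina chips by stalled E. coli RNA polymerase. These were titrated with SNAP-549-labelled MS2 coat protein, doubling from 0.7 or 1.5 nM to 3 µM, without input, with 200 uM small-molecule ligand, or with an oligonucleotide input.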

[1] = input ligand: microRNA oligo, concentration not stated
[2] = Eterna round: R95, input ligand: FMN 200 uM
[3] = Eterna round: R95, input ligand: microRNA oligo, concentration not stated
[4] = Eterna round: R95, input ligand: none

AGGUACAACGGAGGAUAUAAUAGUCUAUAGACGUUAGAAGGCCGGGCCUUCACAUGAGGAUCACCCAUGUCUCUGGAGGCGCCU [Eternabot solution 11] (Eterna round: R96, puzzle: Same State NG 1)
apparent KD of MS2 coat protein [1]: 0.0168 µM

UGUUGUAUUACAGGAUAUCUAGUAUUUUUAUGUAGAGAAGGGUAUUCACAUGAGGAUCACCCAUGUAUAUACGAGGAAGUUGUG [JMF's solution 52] (Eterna round: R96, puzzle: Same State NG 1)
apparent KD of MS2 coat protein [1]: 0.0289 µM

GGGAGAGACGGAGGAUAUGGUGGGAGAUAGGGACUAGAAGGUUGGACAUGAGAAUCGAACAUGAGGAUCACCCAUGUUGGGAGG [iteri-3] (Eterna round: R96, puzzle: Same State NG 1)
apparent KD of MS2 coat protein (input ligand: FMN 200 uM): 0.051 µM | apparent KD of MS2 coat protein [1]: 0.0283 µM | apparent KD of MS2 coat protein (input ligand: none): 0.0632 µM

AGUCCUGAAAAGAAAAUACAGAGAUAUGUACAUGAGGAUCACCCAUGUCAUGUACAAGUUCUAUGCUCGUCAUAUAA [Sensorship 21 - Jieux - Sensor for hsa-mir-208a] (puzzle: Sensor for hsa-mir-208a)
apparent KD of MS2 coat protein [2]: 0.202 µM | apparent KD of MS2 coat protein [3]: 0.0636 µM | apparent KD of MS2 coat protein [4]: 0.262 µM

AUAAGUUUGAUGCUCGUCUCUCCGUACAAACAUGAGGAUCACCCAUGUGGUCGGGAAGUAGCCCAGCCAGUAUGGCC [Anriquradi] (puzzle: Sensor for hsa-mir-208a)
apparent KD of MS2 coat protein [2]: 0.0153 µM | apparent KD of MS2 coat protein [3]: 0.0199 µM | apparent KD of MS2 coat protein [4]: 0.0171 µM

UAAUUAAGUCAAGGAUAUCACGUCGUUUAGACGUGAGAAGGUGACCAAUACAUGAGGAUCACCCAUGUAAUACAUGAAUAAUUA [SSNG1/12-B3] (Eterna round: R96, puzzle: Same State NG 1)
apparent KD of MS2 coat protein (input ligand: FMN 200 uM): 0.0355 µM | apparent KD of MS2 coat protein [1]: 0.0469 µM | apparent KD of MS2 coat protein (input ligand: none): 0.0514 µM

AUAUAACAUGAGGAUCACCCAUGUCACUAAAGUCGAGGAUAUGGGCAGGUUAUAUCCGAACCAGAAGGCGAAUUAU [SS1 Teenbexe 6] (puzzle: Same State 1)
apparent KD of MS2 coat protein [3]: 0.163 µM

GGAUGAUAGACAGGAUAUUGAAUGUAAAUAGGACAAGAAGGGUCAAUGAUUUAAACGACCAGUUACAUGAGGAUCACCCAUGUU [JR_SSNG1_Sub024] (Eterna round: R96, puzzle: Same State NG 1)
apparent KD of MS2 coat protein (input ligand: FMN 200 uM): 0.0294 µM | apparent KD of MS2 coat protein [1]: 0.0367 µM | apparent KD of MS2 coat protein (input ligand: none): 0.0366 µM

UACAAUCUAUCUGAGGAUAUCAUGAAUAAAACAUGAGGAUCACCCAUGUGCAGGAAAACUGCAUAUGAGAAGGCAGAUAGAUUGU [salish99_ss2_r3_067] (puzzle: Same State 2)
apparent KD of MS2 coat protein [2]: 0.0459 µM | apparent KD of MS2 coat protein [3]: 0.181 µM | apparent KD of MS2 coat protein [4]: 0.556 µM

UGUCCAGCCUGAGCUGGACAAAAGCAUGUACAUGAGGAUCACCCAUGUUCAUGUACAAGCUUUUUGCUCGUCUUAUG [salish99_208a_r3_052] (puzzle: Sensor for hsa-mir-208a)
apparent KD of MS2 coat protein [2]: 0.517 µM | apparent KD of MS2 coat protein [3]: 0.0164 µM | apparent KD of MS2 coat protein [4]: 0.655 µM

UACAUACGCGGAGGAUAUGGGCGAGGCGCAGAGGUCUGCACCAAAACAUGAGGAUCACCCAUGUCCCAGAAGGCCGCACAAACU [Onageenza] (Eterna round: R96, puzzle: Same State NG 2)
apparent KD of MS2 coat protein (input ligand: FMN 200 uM): 0.0199 µM | apparent KD of MS2 coat protein [1]: 0.0488 µM | apparent KD of MS2 coat protein (input ligand: none): 0.0719 µM

GCUGCAAUUAACGCCUACAUGAGGAUCACCCAUGUAUGUAGGCAGGAUAUCGUUUGCUUUGCAAACGAGAAGGGCUGUAGUAGC [JL SSNG3 1.13] (Eterna round: R96, puzzle: Same State NG 3)
apparent KD of MS2 coat protein (input ligand: FMN 200 uM): 0.0672 µM | apparent KD of MS2 coat protein [1]: 0.0845 µM | apparent KD of MS2 coat protein (input ligand: none): 0.108 µM

CGUAGGUAGCUGGAGGAUAUCCGAGUGGUAACAUGAGGAUCACCCAUGUGAUGAAAGGAACAUGAGGAGAAGGCUAGCUGCCUGC [JL-ss2-3.11 JL mod] (puzzle: Same State 2)
apparent KD of MS2 coat protein [2]: 0.0154 µM | apparent KD of MS2 coat protein [3]: 0.029 µM | apparent KD of MS2 coat protein [4]: 0.0309 µM

GGUCCAGCUUUUGCUGGUCCUUCGCUUGCACAUGAGGAUCACCCAUGUCGUGUACAUGCUUCCUGCCCGUCUUUUUU [Photon Torp-17] (puzzle: Sensor for hsa-mir-208a)
apparent KD of MS2 coat protein [2]: 0.0344 µM | apparent KD of MS2 coat protein [3]: 0.0155 µM | apparent KD of MS2 coat protein [4]: 0.0391 µM

AGUCCAGCCUGAGCUGGACAUUAGCAUGUACAUGAGGAUCACCCAUGUCAUGUACAAGCUAUUUGCUCGUCUUAAAA [Mat - Sensor - JL mod - D76] (Eterna round: R96, puzzle: Sensor for hsa-mir-208a)
apparent KD of MS2 coat protein (input ligand: FMN 200 uM): 0.592 µM | apparent KD of MS2 coat protein [1]: 0.0157 µM | apparent KD of MS2 coat protein (input ligand: none): 0.455 µM

GUUACAUGAGGAUCACCCAUGUAUGUGUGGGAGUAAGUGUCUUAGGAUAUCUGUUAUUUAAUUUCAGAGAAGGAAGAUUGUUGU [JMF's solution 48] (Eterna round: R96, puzzle: Same State NG 3)
apparent KD of MS2 coat protein (input ligand: FMN 200 uM): 0.125 µM | apparent KD of MS2 coat protein [1]: 0.0912 µM | apparent KD of MS2 coat protein (input ligand: none): 0.105 µM
